Reference: publication PMC9482650, “Quantitative fragmentomics allow affinity mapping of interactomes” (Nature Communications, 2022)

T1: APBA3_1, O96018
T1 sequence (O96018 389-490, limits assumed, looked up): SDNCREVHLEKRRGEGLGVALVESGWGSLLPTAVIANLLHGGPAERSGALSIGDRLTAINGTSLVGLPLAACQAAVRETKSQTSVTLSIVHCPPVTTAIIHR

T2: ARHGEF11, O15085
T2 sequence (O15085 42-136, limits assumed, looked up): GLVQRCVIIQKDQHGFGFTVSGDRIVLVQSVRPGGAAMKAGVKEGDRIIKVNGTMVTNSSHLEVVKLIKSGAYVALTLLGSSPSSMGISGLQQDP

T3: DFNB31_2, Q9P202
T3 sequence (Q9P202 274-371, limits assumed, looked up): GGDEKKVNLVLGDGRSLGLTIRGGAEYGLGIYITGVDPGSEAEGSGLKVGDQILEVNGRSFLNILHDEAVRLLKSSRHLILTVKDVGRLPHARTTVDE

T4: DFNB31_3, Q9P202
T4 sequence (Q9P202 811-907, limits assumed, looked up): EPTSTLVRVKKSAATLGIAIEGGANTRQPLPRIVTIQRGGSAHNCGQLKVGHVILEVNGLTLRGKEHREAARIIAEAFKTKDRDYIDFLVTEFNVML

T5: HTRA3, P83110
T5 sequence (P83110 354-453, limits assumed, looked up): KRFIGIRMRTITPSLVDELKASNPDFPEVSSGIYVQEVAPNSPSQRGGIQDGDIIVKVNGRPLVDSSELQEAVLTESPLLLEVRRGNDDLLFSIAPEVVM

T6: LNX2_2, Q8N448
T6 sequence (Q8N448 334-432, limits assumed, looked up): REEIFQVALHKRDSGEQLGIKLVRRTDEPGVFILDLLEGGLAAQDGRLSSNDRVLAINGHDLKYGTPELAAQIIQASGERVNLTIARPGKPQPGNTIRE

T7: MPDZ_12, O75970
T7 sequence (O75970 1857-1958, limits assumed, looked up): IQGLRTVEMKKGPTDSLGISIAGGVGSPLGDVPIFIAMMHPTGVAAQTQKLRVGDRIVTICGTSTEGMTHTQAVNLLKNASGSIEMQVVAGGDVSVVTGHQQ

T8: RAPGEF6, Q8TEU7
T8 sequence (Q8TEU7 525-625, limits assumed, looked up): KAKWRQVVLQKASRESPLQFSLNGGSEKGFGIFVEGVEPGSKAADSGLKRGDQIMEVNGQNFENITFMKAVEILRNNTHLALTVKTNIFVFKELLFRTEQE

T9: SNTB1, Q13884
T9 sequence (Q13884 107-205, limits assumed, looked up): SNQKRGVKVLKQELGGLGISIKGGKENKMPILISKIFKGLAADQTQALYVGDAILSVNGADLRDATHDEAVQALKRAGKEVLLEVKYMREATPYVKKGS

T10: SNTG1, Q9NSN8
T10 sequence (Q9NSN8 52-150, limits assumed, looked up): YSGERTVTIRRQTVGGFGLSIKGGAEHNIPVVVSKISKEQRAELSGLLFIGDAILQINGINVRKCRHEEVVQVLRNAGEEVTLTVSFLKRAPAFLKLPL

T11: TJP3_3, O95049
T11 sequence (O95049 375-456, limits assumed, looked up): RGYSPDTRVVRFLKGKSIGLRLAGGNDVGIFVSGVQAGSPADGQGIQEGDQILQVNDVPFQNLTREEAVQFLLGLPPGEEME


Legend:
Assay in all cases: holdup assay
Set-up in all cases: key: below the threshold = too weak to quantify, mostly under pKd 3.1 to 4
Conditions in all cases: plain residues with an end cap or a label only (N-terminal biotin on a linker: ado-ado)
[1] = target: T1, APBA3_1, O96018
[2] = target: T2, ARHGEF11, O15085
[3] = target: CASK, O14936
[4] = target: T3, DFNB31_2, Q9P202
[5] = target: T4, DFNB31_3, Q9P202
[6] = target: DLG1_1, Q12959
[7] = target: DLG1_2, Q12959
[8] = target: GIPC2, Q8TF65
[9] = target: GOPC, Q9HD26
[10] = target: T5, HTRA3, P83110
[11] = target: IL16_3, Q14005
[12] = target: Inadl_10, Q8NI35
[13] = target: Inadl_4, Q8NI35
[14] = target: T6, LNX2_2, Q8N448
[15] = target: MAGI2_6, Q86UL8
[16] = target: T7, MPDZ_12, O75970
[17] = target: NHERF4_2, Q86UT5
[18] = target: NOS1, P29475
[19] = target: PICK1, Q9NRD5
[20] = target: PTPN3, P26045
[21] = target: T8, RAPGEF6, Q8TEU7
[22] = target: SCRIB_1, Q14160
[23] = target: T9, SNTB1, Q13884
[24] = target: T10, SNTG1, Q9NSN8
[25] = target: SNX27, Q96L92
[26] = target: TJP1_3, Q07157
[27] = target: T11, TJP3_3, O95049

Inadl_4, Q8NI35, sequence (Q8NI35 547-651): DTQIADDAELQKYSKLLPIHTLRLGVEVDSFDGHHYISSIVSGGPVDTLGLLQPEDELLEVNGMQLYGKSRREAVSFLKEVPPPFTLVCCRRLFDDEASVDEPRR
CASK, O14936, sequence (O14936 487-570): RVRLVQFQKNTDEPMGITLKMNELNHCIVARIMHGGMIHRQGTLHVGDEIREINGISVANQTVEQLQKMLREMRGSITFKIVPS
MAGI2_6, Q86UL8, sequence (Q86UL8 1141-1229): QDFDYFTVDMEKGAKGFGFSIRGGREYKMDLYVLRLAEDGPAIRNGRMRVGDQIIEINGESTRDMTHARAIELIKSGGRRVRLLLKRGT
NHERF4_2, Q86UT5, sequence (Q86UT5 220-308): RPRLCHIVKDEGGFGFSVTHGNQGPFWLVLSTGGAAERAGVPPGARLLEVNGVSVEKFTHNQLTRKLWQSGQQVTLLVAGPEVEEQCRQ
NOS1, P29475, sequence (P29475 9-101): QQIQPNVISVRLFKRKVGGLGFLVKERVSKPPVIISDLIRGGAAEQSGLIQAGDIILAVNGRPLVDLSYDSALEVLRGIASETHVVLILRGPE
IL16_3, Q14005, sequence (Q14005 1107-1207): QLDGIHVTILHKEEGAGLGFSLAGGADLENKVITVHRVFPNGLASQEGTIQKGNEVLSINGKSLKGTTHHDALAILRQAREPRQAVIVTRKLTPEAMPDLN
PTPN3, P26045, sequence (P26045 505-587): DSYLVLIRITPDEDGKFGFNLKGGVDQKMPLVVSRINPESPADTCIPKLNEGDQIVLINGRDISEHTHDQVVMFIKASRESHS
TJP1_3, Q07157, sequence (Q07157 416-512): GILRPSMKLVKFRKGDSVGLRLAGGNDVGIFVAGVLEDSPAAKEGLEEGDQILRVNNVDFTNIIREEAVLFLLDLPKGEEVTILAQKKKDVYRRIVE
PICK1, Q9NRD5, sequence (Q9NRD5 17-115): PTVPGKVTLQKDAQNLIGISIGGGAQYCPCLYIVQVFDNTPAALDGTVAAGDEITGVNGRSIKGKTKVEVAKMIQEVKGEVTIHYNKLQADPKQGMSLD
GIPC2, Q8TF65, sequence (Q8TF65 112-203): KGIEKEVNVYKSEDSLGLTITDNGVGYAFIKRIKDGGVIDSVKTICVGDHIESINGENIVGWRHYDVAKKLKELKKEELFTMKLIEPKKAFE
Inadl_10, Q8NI35, sequence (Q8NI35 1673-1763): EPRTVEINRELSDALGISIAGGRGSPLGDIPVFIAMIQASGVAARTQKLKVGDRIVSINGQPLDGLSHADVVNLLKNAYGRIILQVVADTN
SCRIB_1, Q14160, sequence (Q14160 718-814): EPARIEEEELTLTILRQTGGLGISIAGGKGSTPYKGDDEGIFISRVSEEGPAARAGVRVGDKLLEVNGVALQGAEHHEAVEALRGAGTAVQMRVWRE

Row | Binder | pKd [1] | pKd [2] | pKd [3] | pKd [4] | pKd [5] | pKd [6] | pKd [8] | pKd [9] | pKd [10] | pKd [11] | pKd [12] | pKd [13] | pKd [14] | pKd [15] | pKd [16] | pKd [18] | pKd [19] | pKd [20] | pKd [21] | pKd [22] | also measured
1 | PAALPESTHM [SLC9A3, P48764] | below the threshold | below the threshold | below the threshold | below the threshold | below the threshold | below the threshold | below the threshold | below the threshold | below the threshold | below the threshold | below the threshold | below the threshold | below the threshold | below the threshold | below the threshold | below the threshold | 4.11 | below the threshold | below the threshold | 3.57 | pKd [7]: below the threshold; pKd [17]: below the threshold; pKd [23]: below the threshold; pKd [24]: below the threshold; pKd [25]: below the threshold; pKd [26]: below the threshold; pKd [27]: below the threshold
2 | SKQFDKNAYV [CLDN10, P78369] | below the threshold | below the threshold | below the threshold | below the threshold | below the threshold | below the threshold | below the threshold | below the threshold | 4.06 | below the threshold | below the threshold | below the threshold | 4.1 | below the threshold | below the threshold | 3.61 | below the threshold | below the threshold | below the threshold | below the threshold | pKd [7]: below the threshold; pKd [17]: below the threshold; pKd [23]: below the threshold; pKd [24]: below the threshold; pKd [25]: 3.78; pKd [26]: below the threshold; pKd [27]: 3.68
3 | VYEVPVETKF [SLC26A3, P40879] | below the threshold | 3.62 | below the threshold | below the threshold | 3.94 | below the threshold | 3.53 | below the threshold | below the threshold | below the threshold | below the threshold | below the threshold | below the threshold | 4 | below the threshold | 3.72 | 4.19 | 4.84 | below the threshold | 4.18 | pKd [7]: 3.59; pKd [17]: below the threshold; pKd [23]: below the threshold; pKd [24]: below the threshold; pKd [25]: 5.33; pKd [26]: below the threshold; pKd [27]: below the threshold
4 | NTALVESEDL [PALLS, Q8WX93;Q8WX93-1] | below the threshold | 4.05 | below the threshold | below the threshold | below the threshold | below the threshold | below the threshold | below the threshold | below the threshold | below the threshold | below the threshold | below the threshold | below the threshold | 4.01 | below the threshold | below the threshold | below the threshold | 4.33 | below the threshold | below the threshold | pKd [7]: below the threshold; pKd [23]: below the threshold; pKd [24]: below the threshold; pKd [25]: 4.38; pKd [26]: below the threshold; pKd [27]: below the threshold
5 | VKQYADVEGF [HNRNPK, P61978;P61978-2] | below the threshold | below the threshold | below the threshold | below the threshold | 3.98 | below the threshold | below the threshold | below the threshold | below the threshold | below the threshold | below the threshold | below the threshold | below the threshold | below the threshold | below the threshold | below the threshold | below the threshold | 3.93 | below the threshold | below the threshold | pKd [17]: below the threshold; pKd [23]: below the threshold; pKd [24]: below the threshold; pKd [25]: below the threshold; pKd [26]: below the threshold; pKd [27]: below the threshold
